Assay results published in patent publication US20210228731A1 (Novartis, published 2021).
Changes are numbered by the printed parent chain.

T1: Cynomolgus monkey cKIT D1-5 (cynomolgus monkey, UniProt P10721 26-524 (human entry))
T1 construct: also called cyno cKIT ECD
T1 chain: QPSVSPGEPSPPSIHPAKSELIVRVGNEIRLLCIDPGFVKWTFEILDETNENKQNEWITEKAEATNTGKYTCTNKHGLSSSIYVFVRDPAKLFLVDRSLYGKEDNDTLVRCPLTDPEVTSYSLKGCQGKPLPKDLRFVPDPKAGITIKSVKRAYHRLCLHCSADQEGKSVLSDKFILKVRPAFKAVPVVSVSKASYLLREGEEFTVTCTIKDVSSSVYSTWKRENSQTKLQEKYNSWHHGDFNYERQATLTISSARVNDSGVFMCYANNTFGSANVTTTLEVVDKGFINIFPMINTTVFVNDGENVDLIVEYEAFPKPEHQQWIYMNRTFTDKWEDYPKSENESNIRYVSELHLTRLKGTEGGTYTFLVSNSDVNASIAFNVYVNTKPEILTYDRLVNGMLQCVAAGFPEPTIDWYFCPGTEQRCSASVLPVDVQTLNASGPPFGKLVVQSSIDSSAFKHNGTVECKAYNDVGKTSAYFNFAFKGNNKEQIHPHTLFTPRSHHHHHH

T2: Rat cKIT D1-5, C-terminal mFc (rat)
T2 construct: also called rat cKIT-mFc
T2 chain: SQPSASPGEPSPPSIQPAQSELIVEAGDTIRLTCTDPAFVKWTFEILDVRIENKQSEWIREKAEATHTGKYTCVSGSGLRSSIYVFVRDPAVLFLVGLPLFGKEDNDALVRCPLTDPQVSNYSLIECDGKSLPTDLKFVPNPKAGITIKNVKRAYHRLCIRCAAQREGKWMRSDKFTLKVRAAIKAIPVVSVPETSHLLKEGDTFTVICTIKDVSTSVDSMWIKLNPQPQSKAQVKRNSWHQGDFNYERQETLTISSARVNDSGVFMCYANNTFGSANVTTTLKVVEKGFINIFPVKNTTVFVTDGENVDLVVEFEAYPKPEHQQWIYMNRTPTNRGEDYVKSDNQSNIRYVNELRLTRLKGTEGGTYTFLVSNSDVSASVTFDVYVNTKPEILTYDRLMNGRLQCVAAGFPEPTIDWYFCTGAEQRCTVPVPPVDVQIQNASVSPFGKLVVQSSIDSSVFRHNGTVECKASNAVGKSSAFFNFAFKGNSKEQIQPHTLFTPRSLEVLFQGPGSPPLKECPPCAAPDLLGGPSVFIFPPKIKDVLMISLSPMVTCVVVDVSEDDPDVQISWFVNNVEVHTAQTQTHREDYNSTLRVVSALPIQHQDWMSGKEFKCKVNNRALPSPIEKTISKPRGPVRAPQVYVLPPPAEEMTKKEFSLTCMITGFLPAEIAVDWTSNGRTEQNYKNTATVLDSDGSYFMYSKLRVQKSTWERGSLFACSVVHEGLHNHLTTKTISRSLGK

T3: Mouse cKIT ECD, C-terminal 6x His (Sino Biological Inc, catalog number 50530-M08H) (mouse, UniProt P05532 25-527)
T3 construct: extracellular domain
T3 sequence: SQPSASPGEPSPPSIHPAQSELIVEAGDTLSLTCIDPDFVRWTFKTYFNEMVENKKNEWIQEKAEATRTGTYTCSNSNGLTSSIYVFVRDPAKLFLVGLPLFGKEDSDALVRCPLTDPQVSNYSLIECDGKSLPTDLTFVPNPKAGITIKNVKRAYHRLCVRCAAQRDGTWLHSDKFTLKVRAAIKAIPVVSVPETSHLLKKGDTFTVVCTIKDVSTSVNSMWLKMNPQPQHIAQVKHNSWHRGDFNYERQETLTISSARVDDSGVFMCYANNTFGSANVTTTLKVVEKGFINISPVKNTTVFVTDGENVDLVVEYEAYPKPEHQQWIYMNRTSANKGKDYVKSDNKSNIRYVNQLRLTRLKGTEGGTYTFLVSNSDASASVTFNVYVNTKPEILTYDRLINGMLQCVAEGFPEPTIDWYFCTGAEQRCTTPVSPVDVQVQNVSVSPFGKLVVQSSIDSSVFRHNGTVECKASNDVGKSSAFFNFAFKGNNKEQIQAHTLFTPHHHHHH

B1: Anti-cKIT Ab4 (antibody, human IgG1, lambda, V domains shown)
VH: QVQLQQSGPGLVKPSQTLSLTCAISGDSVSTNSAAWNWIRQSPSRGLEWLGRIYYRSQWLNDYAVSVKSRITINPDTSKNQFSLQLNSVTPEDTAVYYCARQLTYPYTVYHKALDVWGQGTLVTVSS
VL: DIELTQPPSVSVSPGQTASITCSGDNLGDQYVSWYQQKPGQAPVLVIYDDTDRPSGIPERFSGSNSGNTATLTISGTQAEDEADYYCQSTDSKSVVFGGGTKLTVLG
notes: Full-length human IgG1, lambda light chain
B2: Anti-cKIT Ab1 (antibody, human IgG1, kappa, V domains shown)
VH: QVQLVQSGAEVKKPGSSVKVSCKASGGTFSSYAISWVRQAPGQGLEWMGVIFPAEGAPGYAQKFQGRVTITADESTSTAYMELSSLRSEDTAVYYCARGGYISDFDVWGQGTLVTVSS
VL: DIQMTQSPSSLSASVGDRVTITCRASQSISNYLAWYQQKPGKAPKLLIYDASSLQSGVPSRFSGSGSGTDFTLTISSLQPEDFATYYCQQYYYESITFGQGTKVEIKR
notes: Full-length human IgG1, kappa light chain
B3: Anti-cKIT Ab2 (antibody, human IgG1, kappa, V domains shown)
VH: QVQLVQSGAEVKKPGSSVKVSCKASGGTFSSHALSWVRQAPGQGLEWMGGIIPSFGTADYAQKFQGRVTITADESTSTAYMELSSLRSEDTAVYYCARGLYDFDYWGQGTLVTVSS
VL: B2 VL with S28D, N31Q, Y32D, T85V, E94L, S95P, I96S
notes: as for B2
B4: Anti-cKIT Ab3 (antibody, human IgG1, kappa, V domains shown)
VH: B2 VH with V50T, F52G, A54F, A57Q, G59R
VL: B2 VL
notes: as for B2
B5: Anti-cKIT Ab5 (antibody, human IgG1, lambda, V domains shown)
VH: QVQLVQSGAEVKKPGESLKISCKGSGYSFTNYWIAWVRQMPGKGLEWMGIIYPSNSYTLYSPSFQGQVTISADKSISTAYLQWSSLKASDTAMYYCARVPPGGSISYPAFDHWGQGTLVTVSS
VL: DIELTQPPSVSVSPGQTASITCSGDNIGSIYASWYQQKPGQAPVLVIYRDNKRPSGIPERFSGSNSGNTATLTISGTQAEDEADYYCSVTDMEQHSVFGGGTKLTVLG
notes: as for B1

Target: T1, Cynomolgus monkey cKIT D1-5
Experiment: SET per the column head (Example 4 describes SPR, Biacore: antibody captured by anti-human Fc, cKIT ECD in solution)

Kd	Binder
0.14 nM	B1
0.17 nM	B2
0.01 nM	B3
0.052 nM	B4
0.18 nM	B5

Target: T4, Human cKIT D1-5 (extracellular domain) (human, UniProt P10721 26-524)
T4 construct: also called human cKIT ECD; full-length cKIT ECD
T4 sequence (P10721 other isoform, or with tags, fused parts or gaps): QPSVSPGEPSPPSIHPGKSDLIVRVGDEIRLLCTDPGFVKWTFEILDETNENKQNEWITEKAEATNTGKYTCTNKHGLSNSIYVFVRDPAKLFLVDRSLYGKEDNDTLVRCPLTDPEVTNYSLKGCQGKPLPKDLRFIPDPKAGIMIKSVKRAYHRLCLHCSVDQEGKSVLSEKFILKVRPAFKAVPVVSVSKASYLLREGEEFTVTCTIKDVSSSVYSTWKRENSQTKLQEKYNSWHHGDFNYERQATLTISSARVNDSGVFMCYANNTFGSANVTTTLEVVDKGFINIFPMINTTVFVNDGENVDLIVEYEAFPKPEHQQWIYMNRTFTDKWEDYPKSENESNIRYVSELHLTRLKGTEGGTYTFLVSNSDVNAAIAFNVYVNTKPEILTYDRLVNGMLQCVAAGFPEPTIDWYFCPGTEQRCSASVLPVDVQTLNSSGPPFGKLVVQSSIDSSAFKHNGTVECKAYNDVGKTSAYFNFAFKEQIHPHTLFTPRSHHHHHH
Experiment: as above

Kd	Binder
2.4 nM	B1
0.094 nM	B2
0.007 nM	B3
0.11 nM	B5

Target: T2, Rat cKIT D1-5, C-terminal mFc
Experiment: reactivity to rat cKIT (method not given; Example 4 describes SPR)

binding result	Binder
binds	B1
no binding	B2
no binding	B3
no binding	B4
binds	B5

Target: T3, Mouse cKIT ECD, C-terminal 6x His (Sino …)
Experiment: reactivity to mouse cKIT (method not given; Example 4 describes SPR)

binding result	Binder
no binding	B2
no binding	B3
no binding	B4
